Test results taken from US20260167720A1 (Amgen, published 2026).

How the values were obtained:
Assay in all cases: cell-based or functional assay
[1] = target: T1, CDH3 (Cadherin-3, P-Cadherin) on HCT116 or GSU cells (UniProt P22223 108-829, limits assumed)
[2] = target: T2, MSLN (Mesothelin) on HCT116 or GSU cells (UniProt Q13421 37-598, limits assumed)
[3] = target: T1, CDH3 (Cadherin-3, P-Cadherin) on HCT116 …; remark: listed apart in the source
[4] = target: T2, MSLN (Mesothelin) on HCT116 or GSU cells; remark: listed apart in the source

Row | EC50 HCT116 KO MSLN [pM]; TDCC, MSLN knocked out, CDH3 left [1] | EC50 HCT116 WT [pM]; TDCC, cells double positive for CDH3 and MSLN [1] | EC50 HCT116 KO CDH3 [pM]; TDCC, CDH3 knocked out, MSLN left [2] | EC50 HCT116 WT [pM]; TDCC, cells double positive for CDH3 and MSLN [2] | EC50 GSU KO MSLN [pM]; TDCC, MSLN knocked out, CDH3 left [3] | EC50 GSU WT [pM]; TDCC, cells double positive for CDH3 and MSLN [3] | EC50 GSU KO CDH3 [pM]; TDCC, CDH3 knocked out, MSLN left [4] | EC50 GSU WT [pM]; TDCC, cells double positive for CDH3 and MSLN [4] | Binder
1 | 0.27 pM | 0.002 pM | 0.58 pM | 0.002 pM | 11.6 pM | 0.024 pM | 0.89 pM | 0.024 pM | MSLN-CDH3 T-cell engager molecule 6 (example to FIG. 2L) (bispecific antibody, human IgG1, kappa, lambda, N297G) chain 1: not shown chain 2: EVQLVESGGGLVQPGGSLKLSCAASGFTFNKYAMNWVRQAPGKGMEWVARIRSKYNNYATYYADAVKDRFTISRDDSKNTLYLQMNNLKTEDTAVYYCVRAGNFGSSYISYFAYWGQGTLVTVSSASTKGPSVFPLAPSSKSTSGGTAALGCLVKDYFPEPVTVSWNSGALTSGVHTFPAVLQSSGLYSLESVVTVPSSSLGTQTYICNVNHKPSNTKVDKKVEPKSCDKTHTCPPCPAPELLGGPSVFLFPPKPKDTLMISRTPEVTCVVVDVSHEDPEVKFNWYVDGVEVHNAKTKPCEEQYGSTYRCVSVLTVLHQDWLNGKEYKCKVSNKALPAPIEKTISKAKGQPREPQVYTLPPSRKEMTKNQVSLTCLVKGFYPSDIAVEWESNGQPENNYKTTPPVLKSDGSFFLYSKLTVDKSRWQQGNVFSCSVMHEALHNHYTQKSLSLSPGKGGGGQVQLQESGPGLVKPSETLSLTCTVSGGSISSSSYFWGWIRQPPGKCLEWIGNIYYSGSSNYNPSLKSRVTISVDTSKNQFSLKLSSVTAADTAVYYCARLPRGDRDAFDIWGQGTMVTVSSGGGGQGGGGQGGGGQEIVMTQSPSSLSASVGDRVTITCRASQGISNYLAWYQQKPGKVPKLLIYAASTLQSGVPSRFSGSGSGTDFTLTISSLQPEDFATYYCQQSYSTPFTFGCGTKVEIKSGGGGQEVQLVESGGGLVQPGGSLKLSCAASGFTFNKYAMNWVRQAPGKGMEWVARIRSKYNNYATYYADAVKDRFTISRDDSKNTLYLQMNNLKTEDTAVYYCVRAGNFGSSYISYFAYWGQGTLVTVSSGGGGQGGGGQGGGGQQTVVTQEPSLTVSPGGTVTITCGSSTGAVTSGNYPNWIQKKPGQAPRGLIGGTKFLAPGTPARFSGSLEGGKAALTLSGVQPEDEAEYYCVLYYSNRWVFGSGTKLTVL chain 3: EIQMTQSPSSLSASVGDRVTITCRASQDISNYLNWYQQKPGKVPKLLIYYTSRLHSGVPSRFSGSGSGTDFTLTISSLQPEDVATYYCVQYAQFPLTFGCGTKVEIKRTVAAPSVFIFPPSDEQLKSGTASVVCLLNNFYPREAKVQWKVDNALQSGNSQESVTEQDSKDSTYSLESTLTLSKADYEKHKVYACEVTHQGLSSPVTKSFNRGEC chain 4: QTVVTQEPSLTVSPGGTVTITCGSSTGAVTSGNYPNWIQKKPGQAPRGLIGGTKFLAPGTPARFSGSLEGGKAALTLSGVQPEDEAEYYCVLYYSNRWVFGSGTKLTVLGQPKAAPSVTLFPPSSEELQANKATLVCLISDFYPGAVTVAWKADSSPVKAGVETTTPSKQSNNKYAAKSYLSLTPEQWKSHRSYSCQVTHEGSTVEKTVAPTECS
2 | 1.5 pM | 0.04 pM | 25.5 pM | 0.04 pM | 95 pM | 0.261 pM | 54.6 pM | 0.261 pM | MSLN-CDH3 T-cell engager molecule 7 (example to FIG. 2K) (bispecific antibody, human IgG1, kappa, lambda, N297G) chain 1: not shown chain 2: EVQLVESGGGLVQPGGSLKLSCAASGFTFNKYAMNWVRQAPGKGMEWVARIRSKYNNYATYYADAVKDRFTISRDDSKNTLYLQMNNLKTEDTAVYYCVRAGNFGSSYISYFAYWGQGTLVTVSSASTKGPSVFPLAPSSKSTSGGTAALGCLVKDYFPEPVTVSWNSGALTSGVHTFPAVLQSSGLYSLESVVTVPSSSLGTQTYICNVNHKPSNTKVDKKVEPKSCDKTHTCPPCPAPELLGGPSVFLFPPKPKDTLMISRTPEVTCVVVDVSHEDPEVKFNWYVDGVEVHNAKTKPCEEQYGSTYRCVSVLTVLHQDWLNGKEYKCKVSNKALPAPIEKTISKAKGQPREPQVYTLPPSRKEMTKNQVSLTCLVKGFYPSDIAVEWESNGQPENNYKTTPPVLKSDGSFFLYSKLTVDKSRWQQGNVFSCSVMHEALHNHYTQKSLSLSPGKGGGGQGGGGQGGGGQQVQLQESGPGLVKPSETLSLTCTVSGGSISSSSYFWGWIRQPPGKCLEWIGNIYYSGSSNYNPSLKSRVTISVDTSKNQFSLKLSSVTAADTAVYYCARLPRGDRDAFDIWGQGTMVTVSSGGGGQGGGGQGGGGQEIVMTQSPSSLSASVGDRVTITCRASQGISNYLAWYQQKPGKVPKLLIYAASTLQSGVPSRFSGSGSGTDFTLTISSLQPEDFATYYCQQSYSTPFTFGCGTKVEIK chain 3: EIQMTQSPSSLSASVGDRVTITCRASQDISNYLNWYQQKPGKVPKLLIYYTSRLHSGVPSRFSGSGSGTDFTLTISSLQPEDVATYYCVQYAQFPLTFGCGTKVEIKRTVAAPSVFIFPPSDEQLKSGTASVVCLLNNFYPREAKVQWKVDNALQSGNSQESVTEQDSKDSTYSLESTLTLSKADYEKHKVYACEVTHQGLSSPVTKSFNRGEC chain 4: QTVVTQEPSLTVSPGGTVTITCGSSTGAVTSGNYPNWIQKKPGQAPRGLIGGTKFLAPGTPARFSGSLEGGKAALTLSGVQPEDEAEYYCVLYYSNRWVFGSGTKLTVLGQPKAAPSVTLFPPSSEELQANKATLVCLISDFYPGAVTVAWKADSSPVKAGVETTTPSKQSNNKYAAKSYLSLTPEQWKSHRSYSCQVTHEGSTVEKTVAPTECS
